Reference: IntAct's records for PubMed 26160948

B1: Insulin-induced gene 2 protein (Homo sapiens), Q9Y5U4 (parent)
chain: MAEGETESPGPKKCGPYISSVTSQSVNLMIRGVVLFFIGVFLALVLNLLQIQRNVTLFPPDVIASIFSSAWWVPPCCGTASAVIGLLYPCIDRHLGEPHKFKREWSSVMRCVAVFVGINHASAKVDFDNNIQLSLTLAALSIGLWWTFDRSRSGFGLGVGIAFLATVVTQLLVYNGVYQYTSPDFLYVRSWLPCIFFAGGITMGNIGRQLAMYECKVIAEKSHQE
partner: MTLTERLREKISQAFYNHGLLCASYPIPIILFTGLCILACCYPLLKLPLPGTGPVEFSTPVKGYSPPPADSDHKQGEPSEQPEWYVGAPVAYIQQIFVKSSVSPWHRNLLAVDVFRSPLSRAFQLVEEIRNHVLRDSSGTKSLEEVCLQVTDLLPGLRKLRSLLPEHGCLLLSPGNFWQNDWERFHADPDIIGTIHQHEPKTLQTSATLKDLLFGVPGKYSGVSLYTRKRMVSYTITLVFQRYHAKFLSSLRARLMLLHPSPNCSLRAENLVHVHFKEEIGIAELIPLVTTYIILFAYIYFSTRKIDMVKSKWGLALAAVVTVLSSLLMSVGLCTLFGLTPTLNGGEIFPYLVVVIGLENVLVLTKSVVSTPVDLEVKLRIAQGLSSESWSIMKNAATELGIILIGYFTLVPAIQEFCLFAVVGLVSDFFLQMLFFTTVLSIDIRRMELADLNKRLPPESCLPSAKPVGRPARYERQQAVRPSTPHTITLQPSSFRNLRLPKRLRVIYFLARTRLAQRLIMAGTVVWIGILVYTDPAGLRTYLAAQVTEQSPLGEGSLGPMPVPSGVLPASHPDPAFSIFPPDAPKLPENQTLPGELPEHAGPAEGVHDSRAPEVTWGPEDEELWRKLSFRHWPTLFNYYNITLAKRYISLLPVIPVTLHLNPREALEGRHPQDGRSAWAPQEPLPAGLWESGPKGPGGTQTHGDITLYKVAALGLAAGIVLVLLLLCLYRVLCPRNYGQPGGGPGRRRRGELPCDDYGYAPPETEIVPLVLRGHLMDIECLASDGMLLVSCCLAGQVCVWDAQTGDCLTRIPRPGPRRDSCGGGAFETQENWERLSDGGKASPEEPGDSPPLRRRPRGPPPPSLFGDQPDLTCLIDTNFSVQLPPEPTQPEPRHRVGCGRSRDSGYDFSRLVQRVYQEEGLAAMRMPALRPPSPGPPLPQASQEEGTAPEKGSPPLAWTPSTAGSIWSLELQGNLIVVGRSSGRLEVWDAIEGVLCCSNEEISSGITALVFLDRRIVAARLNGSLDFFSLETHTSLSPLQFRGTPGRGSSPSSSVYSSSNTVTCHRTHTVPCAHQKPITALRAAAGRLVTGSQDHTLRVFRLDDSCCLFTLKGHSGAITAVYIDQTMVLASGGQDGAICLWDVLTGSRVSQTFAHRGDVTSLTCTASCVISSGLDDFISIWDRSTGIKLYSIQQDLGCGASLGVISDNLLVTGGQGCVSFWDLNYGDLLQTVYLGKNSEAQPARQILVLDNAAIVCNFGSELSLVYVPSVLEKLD

Variants of: B1
Details: with scap_mouse Scap

Q: For H120F, which “effect of a mutation on the interaction” value is on record?
A: disrupting interaction strength

Q: How did the “effect of a mutation on the interaction” value turn out when W145A was run?
A: disrupting interaction strength

Q: D149A was tested. Which “effect of a mutation on the interaction” value did it give?
A: disrupting interaction strength

Q: For C77D, which “effect of a mutation on the interaction” value is on record?
A: decreasing interaction strength

Q: Which “effect of a mutation on the interaction” value does the source give for N47A;Q50F;N119F here?
A: decreasing interaction strength

Q: Which “effect of a mutation on the interaction” value does the source give for G117F here?
A: decreasing interaction strength

Q: Which “effect of a mutation on the interaction” value does the source give for F115A here?
A: disrupting interaction strength

Q: M203W was tested. Which “effect of a mutation on the interaction” value did it give?
A: decreasing interaction strength

Q: G39F was tested. Which “effect of a mutation on the interaction” value did it give?
A: decreasing interaction strength

Q: For A113W, which “effect of a mutation on the interaction” value is on record?
A: disrupting interaction strength

Q: How did the “effect of a mutation on the interaction” value turn out when G200F was run?
A: decreasing interaction strength

Q: Which “effect of a mutation on the interaction” value does the source give for Q132A here?
A: decreasing interaction strength
